Laboratory results reported in patent US12233135B2, “Therapeutic constructs for treating cancer” (PRECISION MOLECULAR INC., priority 2018, dated 2025).

System: B16F10-Red-FLuc mouse melanoma cells
Assay: Syngeneic model of experimental metastasis to the lung using B16F10-Red-FLuc cells
Format: in vivo
Details: Example 9
Procedure: B16F10-Red-FLuc mouse melanoma cells (Perkin Elmer, Waltham, MA, USA) were cultured in RPMI 1640 cell culture medium supplemented with 10% FBS, 1% GlutaMAX™, and 1% penicillin-streptomycin, and grown at 37° C. in a humidified cell culture incubator supplied with 5% CO2. The cells were harvested by trypsinization, washed twice in HBSS and counted (using trypan blue exclusion). The final cell density was adjusted with HBSS to 3.5×10e6 cells/mL. 100 μL of cell suspension, consisting of 3.5×10e5 cells, was discharged into the tail vein of mice at the start of the study (Day 0). Imaging was performed on study Day 5, when the presence of lung tumors was confirmed in sufficient animals to commence the study. Imaging was performed as described in Example 6.
9.5% Trehalose buffer and nanoparticles containing PEG-lucia, PEG-mIL12, PEG-TK-mIL12, PEG-mIL2-mIL12 and PEG-TK-mIL2-mIL12 (each 60 μg/vial) were reconstituted in 300 μL of nuclease-free water per vial on the day of dosing to give dosing solutions of 200 μg/mL. Formulated test articles were stored at 4° C. and used on day of reconstitution.
9.5% Trehalose buffer and nanoparticles containing PEG-lucia, PEG-mIL12, PEG-TK-mIL12, PEG-mIL2-mIL12 and PEG-TK-mIL2-mIL12 were administered via intravenous injection (i.v.) on Study Days 5, 8, 11, 14 and 17. Treatments were administered at a dose of 2 mg/kg in a dosing volume of 10 mL/kg on Study Days 5, 11, 14 and 17. Due to declining body weight in all groups apart from the vehicle control at Day 6, the dose was reduced to 1 mg/kg in 5 mL/kg for the dose administered on Study Day 8. Dosing then resumed at 2 mg/kg in 10 mL/kg on Study Day 11 as per protocol.
The anti-tumor effect of nanoparticles containing PEG-mIL12 and expressing mIL-12 was compared to recombinant mIL-12 protein administered subcutaneously. The experimental design was as Example 8 but nanoparticles were prepared at N/P=4 and N/P=6 ratios. Nanoparticles were dosed as before for N/P=6, however, for the N/P=4 formulation the dose was maintained at 2 mg/kg in 10 mL/kg at day 8. […]

B1: recombinant mIL-12: recombinant mIL-12 protein (PeproTech) administered subcutaneously (protein, UniProt P43431 23-215; P43432 23-335, looked up)
Interleukin-12 subunit alpha: RVIPVSGPARCLSQSRNLLKTTDDMVKTAREKLKHYSCTAEDIDHEDITRDQTSTLKTCLPLELHKNESCLATRETSSTTRGSCLPPQKTSLMMTLCLGSIYEDLKMYQTEFQAINAALQNHNHQQIILDKGMLVAIDELMQSLNHNGETLRQKPPVGEADPYRVKMKLCILLHAFSTRVVTINRVMGYLSSA
Interleukin-12 subunit beta: MWELEKDVYVVEVDWTPDAPGETVNLTCDTPEEDDITWTSDQRHGVIGSGKTLTITVKEFLDAGQYTCHKGGETLSHSHLLLHKKENGIWSTEILKNFKNKTFLKCEAPNYSGRFTCSWLVQRNMDLKFNIKSSSSSPDSRAVTCGMASLSAEKVTLDQRDYEKYSVSCQEDVTCPTAEETLPIELALEARQQNKYENYSTSFFIRDIIKPDPPKNLQMKPLKNSQVEVSWEYPDSWSTPHSYFSLKFFVRIQRKKEKMKETEEGCNQKGAFLVEKTSTEVQCKGGNVCVQAQDRYYNSSCSKWACVPCRVRS
Log-rank test, p≤0.01 for PEG-mIL12 formulations, p≤0.05 for recombinant mIL-12
  Median survival compared with Trehalose control: significantly longer
Study Day 19
  tumor growth by luminescence compared with 9.5% Trehalose control: significant (p≤0.05) inhibition of tumor growth
Nanoparticles 2 mg/kg i.v., recombinant mIL-12 s.c. 4 μg/kg then 12 μg/kg, Trehalose control 22.0 days
  Median survival time: 25.0 days
